Measurements from patent US20220227830A1, “QD DOSING OF GIP RECEPTOR AGONIST PEPTIDE COMPOUNDS AND USES THEREOF” (Takeda Pharmaceutical Company Limited, priority 2020, published 2022).
Starred links: 1 amine or outer side, 2 acyl side, 3 side chain; linkers in the order of their positions; H or OH if unused. Non-standard residues stand in square brackets, D forms with d. Groups on a side chain read outwards from the residue. No end group written: not given here. *: point of attachment. C15 diacid = O=C(O)CCCCCCCCCCCCCC(=O)*; γGlu = O=C(O)[C@H](CCC(=O)[*:2])N[*:1]; NMeY = CN[C@@H](Cc1ccc(O)cc1)C(=O)O; Palmitoyl = CCCCCCCCCCCCCCCC(=O)*; AEEA = NCCOCCOCC(=O)O; Aib = CC(C)(N)C(=O)O

What was measured:
[1] = molecular target: full-length human GLP-1R with an N-terminal FLAG tag (human, UniProt P43220 24-463); experiment: cell-based or functional assay
[2] = molecular target: T1, full-length human GIPR with an N-terminal FLAG tag (human, UniProt P48546 22-466); experiment: cell-based or functional assay
T1 sequence (looked up): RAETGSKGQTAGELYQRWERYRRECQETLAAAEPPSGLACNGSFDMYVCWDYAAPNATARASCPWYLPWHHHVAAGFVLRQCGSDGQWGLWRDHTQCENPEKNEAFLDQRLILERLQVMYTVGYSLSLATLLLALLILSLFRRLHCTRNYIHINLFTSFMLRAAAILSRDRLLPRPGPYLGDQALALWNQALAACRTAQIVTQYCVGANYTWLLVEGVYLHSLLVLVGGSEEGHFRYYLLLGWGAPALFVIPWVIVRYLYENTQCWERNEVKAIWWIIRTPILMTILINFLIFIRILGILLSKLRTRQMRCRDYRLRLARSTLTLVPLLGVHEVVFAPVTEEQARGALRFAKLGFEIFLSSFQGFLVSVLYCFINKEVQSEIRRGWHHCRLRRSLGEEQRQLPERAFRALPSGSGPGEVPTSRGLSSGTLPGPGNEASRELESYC

[3] = molecular target: human plasma proteins; experiment: plasma protein binding, ultracentrifugation of spiked plasma, LC-MS/MS
[4] = molecular target: full-length human GLP-1R with an N-terminal FLAG tag, overexpressed on HEK-293T cells (human, UniProt P43220 24-463); experiment: cell-based or functional assay
[5] = molecular target: T2, full-length human GIPR with an N-terminal FLAG tag, overexpressed on HEK-293T cells (human, UniProt P48546 22-466); experiment: cell-based or functional assay
T2 sequence (looked up): T1 sequence (looked up)

B1: Compound 29 (peptide)
peptide: [NMeY][Aib]EGTFISDYSIALDR[Aib]AQ[Aib]K([AEEA-γGlu-γGlu-γGlu-C15 diacid])FVNWLL[Aib]QK-NH2
modifications: N-terminus assumed
SMILES: CC[C@H](C)[C@H](NC(=O)[C@H](CO)NC(=O)[C@H](Cc1ccc(O)cc1)NC(=O)[C@H](CC(=O)O)NC(=O)[C@H](CO)NC(=O)[C@@H](NC(=O)[C@H](Cc1ccccc1)NC(=O)[C@@H](NC(=O)CNC(=O)[C@H](CCC(=O)O)NC(=O)C(C)(C)NC(=O)[C@H](Cc1ccc(O)cc1)NC)[C@@H](C)O)[C@@H](C)CC)C(=O)N[C@@H](C)C(=O)N[C@@H](CC(C)C)C(=O)N[C@@H](CC(=O)O)C(=O)N[C@@H](CCCNC(=N)N)C(=O)NC(C)(C)C(=O)N[C@@H](C)C(=O)N[C@@H](CCC(N)=O)C(=O)NC(C)(C)C(=O)N[C@@H](CCCCNC(=O)COCCOCCNC(=O)CC[C@H](NC(=O)CC[C@H](NC(=O)CC[C@H](NC(=O)CCCCCCCCCCCCCC(=O)O)C(=O)O)C(=O)O)C(=O)O)C(=O)N[C@@H](Cc1ccccc1)C(=O)N[C@H](C(=O)N[C@@H](CC(N)=O)C(=O)N[C@@H](Cc1c[nH]c2ccccc12)C(=O)N[C@@H](CC(C)C)C(=O)N[C@@H](CC(C)C)C(=O)NC(C)(C)C(=O)N[C@@H](CCC(N)=O)C(=O)N[C@@H](CCCCN)C(N)=O)C(C)C
[1]
  Human GLP1R cAMP HEK293T EC50: 47.1 nM
[2]
  Human GIPR cAMP, HEK293T EC50: 0.0001 nM
[3]
  Human PPB (Fu,plasma), fraction unbound (fraction unbound): 0.018

B2: Compound 22 (peptide)
peptide: [NMeY][Aib]EGTFISDYSIAK([AEEA-AEEA-γGlu-γGlu-C15 diacid])DR[Aib]AQ[Aib]NFVNWLLAQK-NH2
modifications: N-terminus assumed
SMILES: CC[C@H](C)[C@H](NC(=O)[C@H](CO)NC(=O)[C@H](Cc1ccc(O)cc1)NC(=O)[C@H](CC(=O)O)NC(=O)[C@H](CO)NC(=O)[C@@H](NC(=O)[C@H](Cc1ccccc1)NC(=O)[C@@H](NC(=O)CNC(=O)[C@H](CCC(=O)O)NC(=O)C(C)(C)NC(=O)[C@H](Cc1ccc(O)cc1)NC)[C@@H](C)O)[C@@H](C)CC)C(=O)N[C@@H](C)C(=O)N[C@@H](CCCCNC(=O)COCCOCCNC(=O)COCCOCCNC(=O)CC[C@H](NC(=O)CC[C@H](NC(=O)CCCCCCCCCCCCCC(=O)O)C(=O)O)C(=O)O)C(=O)N[C@@H](CC(=O)O)C(=O)N[C@@H](CCCNC(=N)N)C(=O)NC(C)(C)C(=O)N[C@@H](C)C(=O)N[C@@H](CCC(N)=O)C(=O)NC(C)(C)C(=O)N[C@@H](CC(N)=O)C(=O)N[C@@H](Cc1ccccc1)C(=O)N[C@H](C(=O)N[C@@H](CC(N)=O)C(=O)N[C@@H](Cc1c[nH]c2ccccc12)C(=O)N[C@@H](CC(C)C)C(=O)N[C@@H](CC(C)C)C(=O)N[C@@H](C)C(=O)N[C@@H](CCC(N)=O)C(=O)N[C@@H](CCCCN)C(N)=O)C(C)C
[3]
  Human PPB (Fu,plasma), fraction unbound (fraction unbound): 0.0413

## Me-Y[Aib]EGTFISDYSIALDR[Aib]AQ[Aib]K([2OEG-γGlu-γGlu-C15 diacid])FVNWLLAQKG-NH2 [Compound 205]
[4]
  Human GLP1R cAMP HEK293T EC50: 13.5 nM
[5]
  Human GIPR cAMP, HEK293T EC50: 0.0002 nM

## Me-Y[Aib]EGTFISDYSIALDR[Aib]AQ[Aib]K([2OEG-γGlu-γGlu-C15 diacid])FVNWLLAQKPSSGAPPPS-NH2 [Compound 209]
[4]
  Human GLP1R cAMP HEK293T EC50: 479 nM
[5]
  Human GIPR cAMP, HEK293T EC50: 0.0003 nM

## Me-Y[Aib]EGTFISDYSIALDR[Aib]AQ[Aib]K([G5gEgE-C15 diacid])FVNWLLAQKG-OH [Compound 215]
[4]
  Human GLP1R cAMP HEK293T EC50: 45.7 nM
[5]
  Human GIPR cAMP, HEK293T EC50: 0.0002 nM

## Me-Y[Aib]EGTFISDYSIALDR[Aib]AQ[Aib]K([2OEG-γGlu-γGlu-C15 diacid])FVNWLLAQRG-OH [Compound 211]
[4]
  Human GLP1R cAMP HEK293T EC50: 174 nM
[5]
  Human GIPR cAMP, HEK293T EC50: 0.0002 nM

## Me-Y[Aib]EGTFISDYSIALDR[Aib]AQ[Aib]KFVNWLLAQKG-OH (not fully specified (residues 1, 21)) [Compound 212]
[4]
  Human GLP1R cAMP HEK293T EC50: 66.1 nM
[5]
  Human GIPR cAMP, HEK293T EC50: 0.0002 nM

## Me-YAEGTFISDYSIALDR[Aib]AQ[Aib]K([2OEG-γGlu-γGlu-C15 diacid])FVNWLLAQKG-OH [Compound 217]
[4]
  Human GLP1R cAMP HEK293T EC50: 4.9 nM
[5]
  Human GIPR cAMP, HEK293T EC50: 0.0002 nM

## Me-Y[Aib]EGTFISDYSIALDR[Aib]AQ[Aib]K([2OEG-γGlu-C15 diacid])FVNWLLAQKG-OH [Compound 213]
[4]
  Human GLP1R cAMP HEK293T EC50: 17 nM
[5]
  Human GIPR cAMP, HEK293T EC50: 0.0003 nM

## Me-YGEGTFISDYSIALDR[Aib]AQ[Aib]K([2OEG-γGlu-γGlu-C15 diacid])FVNWLLAQKG-OH [Compound 206]
[4]
  Human GLP1R cAMP HEK293T EC50: 145 nM
[5]
  Human GIPR cAMP, HEK293T EC50: 0.0013 nM

## Me-Y[dA]EGTFISDYSIALDR[Aib]AQ[Aib]K([2OEG-γGlu-γGlu-C15 diacid])FVNWLLAQKG-OH [Compound 216]
[4]
  Human GLP1R cAMP HEK293T EC50: 34.7 nM
[5]
  Human GIPR cAMP, HEK293T EC50: 0.0003 nM

## [NMeY][Aib]EGTFISDYSI[Aib]LDR[Aib]AQ[Aib]K([AEEA-AEEA-γGlu-γGlu-Palmitoyl])FVNWLLAQRG-OH (not fully specified (N-terminus)) [Compound 203]
[4]
  Human GLP1R cAMP HEK293T EC50: 2.63 nM
[5]
  Human GIPR cAMP, HEK293T EC50: 0.003 nM

## Me-Y[Aib]EGTFISDYSIALDR[Aib]AQ[Aib]K([2OEG-γGlu-γGlu-C15 diacid])FVNWLLAQK-NH2 [Compound 210]
[4]
  Human GLP1R cAMP HEK293T EC50: 129 nM
[5]
  Human GIPR cAMP, HEK293T EC50: 0.0003 nM

## [NMeY][Aib]EGTFISDYSIAK([Gly-Gly-Glu-Glu-Glu-C15 diacid])DR[Aib]AQ[Aib]NFVNWLLAQK-NH2 (not fully specified) [Compound 30]
[3]
  Human PPB (Fu,plasma), fraction unbound (fraction unbound): 0.0407

## Me-Y[Aib]EGTFISDYSIALDR[Aib]AQ[Aib]K([2OEG-C15 diacid])FVNWLLAQKG-OH [Compound 218]
[4]
  Human GLP1R cAMP HEK293T EC50: 89.1 nM
[5]
  Human GIPR cAMP, HEK293T EC50: 0.0006 nM

B3: Compound 24 (peptide)
peptide: [NMeY][Aib]EGTFISDYSIALDR[Aib]AQ[Aib]K([AEEA-γGlu-γGlu-γGlu-C15 diacid])FVNWLLAQK-NH2
modifications: N-terminus assumed
SMILES: CC[C@H](C)[C@H](NC(=O)[C@H](CO)NC(=O)[C@H](Cc1ccc(O)cc1)NC(=O)[C@H](CC(=O)O)NC(=O)[C@H](CO)NC(=O)[C@@H](NC(=O)[C@H](Cc1ccccc1)NC(=O)[C@@H](NC(=O)CNC(=O)[C@H](CCC(=O)O)NC(=O)C(C)(C)NC(=O)[C@H](Cc1ccc(O)cc1)NC)[C@@H](C)O)[C@@H](C)CC)C(=O)N[C@@H](C)C(=O)N[C@@H](CC(C)C)C(=O)N[C@@H](CC(=O)O)C(=O)N[C@@H](CCCNC(=N)N)C(=O)NC(C)(C)C(=O)N[C@@H](C)C(=O)N[C@@H](CCC(N)=O)C(=O)NC(C)(C)C(=O)N[C@@H](CCCCNC(=O)COCCOCCNC(=O)CC[C@H](NC(=O)CC[C@H](NC(=O)CC[C@H](NC(=O)CCCCCCCCCCCCCC(=O)O)C(=O)O)C(=O)O)C(=O)O)C(=O)N[C@@H](Cc1ccccc1)C(=O)N[C@H](C(=O)N[C@@H](CC(N)=O)C(=O)N[C@@H](Cc1c[nH]c2ccccc12)C(=O)N[C@@H](CC(C)C)C(=O)N[C@@H](CC(C)C)C(=O)N[C@@H](C)C(=O)N[C@@H](CCC(N)=O)C(=O)N[C@@H](CCCCN)C(N)=O)C(C)C
[3]
  Human PPB (Fu,plasma), fraction unbound (fraction unbound): 0.0512
